Measurements: article PMC12912723 (eLife, 2026)
Substitutions are numbered along the chain they refer to. Like-named read-outs stand apart in the source and are kept apart here.

B1: P1D5 (antibody, V domains shown)
VH: QVQLHESGPGLVEPSQTLTLTCTVSGGSTDSDGVYWTWIRQPAGKGLEWIGRIDNRGTYSYNPSLRSRITISEEPSQNQFSLRVRSLTAADAGVYYCAREVRRLQGRRYYYYGTDVWGPGTTVTVSS
VL: DIVMTQSPLSLSVTLGESASISCRSSQSLLHTNAYNYLDWYLQRPGQSPQLLIYLSSVRASGVPDRFSGRGSGTDFTLKISRVEAEDVGIYFCMQALEMPFTFGPGTKVDIK
B2: P1B7 (antibody, V domains shown)
VH: EVQLLESGGGLVQPGGSLRLSCAASGFTFKSYAMSWVRQAPGKGLEWVSAISGSGGSKYYADSVKGRFTISRDDSKNTLYLQMNSLRVEDTAVYYCAKPLLDSVYCLESWGQGTLVTVSS
VL: DIQMTQSPSSLSASVGDRVTITCRASQDISNYLSWYQQRPGKAPKSLIYAAFRLQSGVPSKFSGSGSGTDFTLTISSLQPEDFATYYCQQYYTYPPTFGQGTKLEIK
B3: P5D5 (antibody, V domains shown)
VH: B2 VH with K30N, S31N, N77S, T78R, V93L, A97T, D102E, C106Y
VL: B2 VL with D28G, Y32H, S34A, Y36F, R39K, F52S, K61R, T85S, T93S, T97A
B4: P1D7 (antibody, V domains shown)
VH: EVQLLESGGGLVQPGGSLRLSCAASGFTFTSYAMSWVRQAPGKGLEWVSALSNSGDSTYYADSVKGRFTISRDNSKNTLYLQMHSLRVEDTAVYYCAKDREGDYGDYVFDYWGQGTLVTVSS
VL: SYVLTQPPSVSVAPGQTARIPCGGNNIGRKSVHWYQQKPGQAPVLVVYDDSDRPSGIPERFSGSNSGNTATLTISRVEAGDEADYYCQVWDSSDDLVVFGGGTTLTVL
B5: P3G2 (antibody, V domains shown)
VH: QVQLQESGPGLVKPSETLSLTCSVSGGSVASGDFYWSWVRQPAGTGLEWIGRVSTSGSTNCNPSLKSRVTISIDTSKNEFSLRLPSVTAADTAVYYCARYRPGSGGLGVYYDYWGQGILVTVSS
VL: QSALTQPPSASGSPGQSVTISCTGASSDIGGYNYVSWYQQHPGRAPRLMIYEVHNRPSGVPDRFSGSKSGNTASLTVSGLQAEDEADYYCMSYAGGNILLFGGGTKLTVL
B6: P3G7 (antibody, V domains shown)
VH: EVQLVESGGGLVQPGRSLTLSCAVTGFIVRDYHIDWVRQAPGKGLEWVGRARNKASRYRVVYAASLKDRFTIIRDDSKNSIYLRMSSLKTEDAAMYFCVRVGHYDTQGYALDDYDVWGQGTAVTVSS
VL: QSVLTQSPSVSAAPGQRVTIHCFGSSSTIGSNQLSWYQQVPGTAPKLLIYDSDKRPSGIPDRFSASKSGTSGTLDISGLQSGDEADYYCETWDDTLKAVVFGGGTKLTVL
B7: P5G10 (human anti-PscF monoclonal antibody) (antibody, V domains shown)
VH: VQLQQWGAGLLKPSETLSLTCAVYGGSFSDYYWTWIRQAPGKGLEWIGENRHRGTTNYNPSLKGRVTISVDTSKNQFTLKVTSVTAADTAVYFCARQRGSSGGAPSGLDVWGQGTTVTVSS
VL: QSVLTQPPSASGTPGQRVTISCSGASSNIGTNYVFWYQQFPGTAPKLLIYRNGHRPSGVPDRFSGSKSGASASLAISGLRSDDEADYYCATWDDSLSSQVFGGGTKLTVL
notes: also called P5G10 mAb

How the values were obtained:
[1] = molecular target: T1, PscF from strain PAO1 (Pseudomonas aeruginosa PAO1, UniProt P95434)
T1 sequence (P95434 whole entry): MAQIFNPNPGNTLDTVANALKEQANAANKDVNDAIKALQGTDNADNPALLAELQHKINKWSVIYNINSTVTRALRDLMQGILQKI

[2] = molecular target: T1, PscF from strain PAO1; assay: ELISA; competition ELISA; serial dilutions of competitor mAbs on antigen-coated wells for 30 min, then biotinylated mAbs at their EC70; detected with AP-conjugated streptavidin; conditions: both partners purified

| Binder | binding result [1] | binding result [2] |
| --- | --- | --- |
| B1 | binds | – |
| B2 | binds | – |
| B3 | binds | – |
| B4 | binds | – |
| B5 | binds | – |
| B6 | binds | – |
| B7 | – | binds |
